# In publication PMC10397247:
# T1: 4H3016-AA
# T1 chain: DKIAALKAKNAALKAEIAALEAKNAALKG
# T2: 4H982-AA
# T2 chain: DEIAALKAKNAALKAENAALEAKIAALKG
# T3: 4H3120-AA
# T3 chain: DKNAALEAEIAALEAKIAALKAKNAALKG
# T4: 4H2274-AA
# T4 chain: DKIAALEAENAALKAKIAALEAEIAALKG
# T5: 4H3865-AA
# T5 chain: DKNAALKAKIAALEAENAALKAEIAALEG
# T6: 4H3631-AA
# T6 chain: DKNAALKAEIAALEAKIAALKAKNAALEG
# T7: 4H3753-AA
# T7 chain: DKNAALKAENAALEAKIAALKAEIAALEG
# T8: 4H458-AA
# T8 chain: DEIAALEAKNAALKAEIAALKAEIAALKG
# T9: 4H384-AA
# T9 chain: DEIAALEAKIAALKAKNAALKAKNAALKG
# T10: 4H3697-AA
# T10 chain: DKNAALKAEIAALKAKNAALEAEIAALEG
# T11: 4H310-AA
# T11 chain: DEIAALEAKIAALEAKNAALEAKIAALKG
# T12: 4H3590-AA
# T12 chain: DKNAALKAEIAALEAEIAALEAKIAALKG
# T13: 4H2389-AA
# T13 chain: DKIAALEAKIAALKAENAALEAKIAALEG
# T14: 4H2698-AA
# T14 chain: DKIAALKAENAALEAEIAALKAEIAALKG
# T15: 4H710-AA
# T15 chain: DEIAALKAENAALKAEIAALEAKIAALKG
# T16: 4H3606-AA
# T16 chain: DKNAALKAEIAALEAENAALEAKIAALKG
# T17: 4H909-AA
# T17 chain: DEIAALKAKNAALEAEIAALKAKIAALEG
# T18: 4H3130-AA
# T18 chain: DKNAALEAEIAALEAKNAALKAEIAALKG
# T19: 4H2473-AA
# T19 chain: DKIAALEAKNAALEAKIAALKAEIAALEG
# T20: 4H697-AA
# T20 chain: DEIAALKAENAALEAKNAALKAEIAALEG
# T21: 4H3009-AA
# T21 chain: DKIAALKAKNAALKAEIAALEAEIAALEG
# T22: 4H2865-AA
# T22 chain: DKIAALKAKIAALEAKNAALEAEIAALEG
# T23: 4H891-AA
# T23 chain: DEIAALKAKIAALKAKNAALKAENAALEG
# T24: 4H2725-AA
# T24 chain: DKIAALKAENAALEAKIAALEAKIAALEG
# T25: 4H3718-AA
# T25 chain: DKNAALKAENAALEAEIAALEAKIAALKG
# T26: 4H3165-AA
# T26 chain: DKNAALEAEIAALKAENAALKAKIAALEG
# T27: 4H745-AA
# T27 chain: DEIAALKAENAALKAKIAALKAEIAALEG
# T28: 4H629-AA
# T28 chain: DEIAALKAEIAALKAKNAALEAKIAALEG
# T29: 4H2611-AA
# T29 chain: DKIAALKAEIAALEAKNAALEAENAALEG
# T30: 4H2330-AA
# T30 chain: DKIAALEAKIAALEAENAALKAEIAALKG
# T31: 4H2253-AA
# T31 chain: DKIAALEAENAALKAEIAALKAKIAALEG
# T32: 4H2438-AA
# T32 chain: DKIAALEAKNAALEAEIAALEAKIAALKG
# T33: 4H797-AA
# T33 chain: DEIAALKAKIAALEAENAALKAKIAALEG
# T34: 4H2649-AA
# T34 chain: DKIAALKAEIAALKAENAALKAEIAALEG
# T35: 4H536-AA
# T35 chain: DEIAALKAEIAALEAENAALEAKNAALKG
# T36: 4H930-AA
# T36 chain: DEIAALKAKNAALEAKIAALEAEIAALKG
# T37: 4H3410-AA
# T37 chain: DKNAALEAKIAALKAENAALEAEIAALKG
# T38: 4H570-AA
# T38 chain: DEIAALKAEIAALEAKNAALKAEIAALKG
# How the values were obtained:
# Experiment in all cases: two-hybrid library CCmax;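 further: natural log of median RNA to DNA barcode read ratio; higher means stronger binding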
# Settings in all cases: mean of both orientations
# [1] = molecular target: T1, 4H3016-AA
# [2] = molecular target: T2, 4H982-AA
# [3] = molecular target: T3, 4H3120-AA
# [4] = molecular target: T4, 4H2274-AA
# [5] = molecular target: T5, 4H3865-AA
# [6] = molecular target: T6, 4H3631-AA
# [7] = molecular target: T7, 4H3753-AA
# [8] = molecular target: T8, 4H458-AA
# [9] = molecular target: T9, 4H384-AA
# [10] = molecular target: T10, 4H3697-AA
# [11] = molecular target: T11, 4H310-AA
# [12] = molecular target: T12, 4H3590-AA
# [13] = molecular target: T13, 4H2389-AA
# [14] = molecular target: T14, 4H2698-AA
# [15] = molecular target: T15, 4H710-AA
# [16] = molecular target: T16, 4H3606-AA
# [17] = molecular target: T17, 4H909-AA
# [18] = molecular target: T18, 4H3130-AA
# [19] = molecular target: T19, 4H2473-AA
# [20] = molecular target: T20, 4H697-AA
# [21] = molecular target: T21, 4H3009-AA
# [22] = molecular target: T22, 4H2865-AA
# [23] = molecular target: T23, 4H891-AA
# [24] = molecular target: T24, 4H2725-AA
# [25] = molecular target: T25, 4H3718-AA
# [26] = molecular target: T26, 4H3165-AA
# [27] = molecular target: T27, 4H745-AA
# [28] = molecular target: T28, 4H629-AA
# [29] = molecular target: T29, 4H2611-AA
# [30] = molecular target: T30, 4H2330-AA
# [31] = molecular target: T31, 4H2253-AA
# [32] = molecular target: T32, 4H2438-AA
# [33] = molecular target: T33, 4H797-AA
# [34] = molecular target: T34, 4H2649-AA
# [35] = molecular target: T35, 4H536-AA
# [36] = molecular target: T36, 4H930-AA
# [37] = molecular target: T37, 4H3410-AA
# [38] = molecular target: T38, 4H570-AA
binder,measurement,setting,value
DENAALEAKIAALEAENAALKAKIAALKG [4H1310-AA],interaction score,[1],0.425
same,interaction score,[2],-1.4
same,interaction score,[3],-1.24
same,interaction score,[4],-1.15
same,interaction score,[5],2.2
same,interaction score,[6],-1.57
same,interaction score,[7],-1.37
same,interaction score,[8],-1.3
same,interaction score,[9],-1.55
same,interaction score,[10],0.439
same,interaction score,[11],-0.748
same,interaction score,[12],-0.24
same,interaction score,[13],1.17
same,interaction score,[14],-0.391
same,interaction score,[15],-0.684
same,interaction score,[16],2.23
same,interaction score,[17],-1.21
same,interaction score,[18],0.822
same,interaction score,[19],-1.02
same,interaction score,[20],-1.05
same,interaction score,[21],0.0502
same,interaction score,[22],1.76
same,interaction score,[23],-1.69
same,interaction score,[24],-1.12
same,interaction score,[25],-1.04
same,interaction score,[26],0.0119
same,interaction score,[27],-1.11
same,interaction score,[28],-1.49
same,interaction score,[29],-1.46
same,interaction score,[30],1.35
same,interaction score,[31],-0.556
same,interaction score,[32],-0.264
same,interaction score,[33],1.92
same,interaction score,[34],1.94
same,interaction score,[35],-1.27
same,interaction score,[36],-1.4
same,interaction score,[37],1.9
same,interaction score,[38],0.408
